Assay results published in PMC9017343 (2022).

What was measured:
[1] = molecular target: T1, SARS-CoV S trimer (ectodomain) (SARS-CoV, UniProt P59594 14-1195); assay: SPR
[2] = molecular target: T1, SARS-CoV S trimer (ectodomain); assay: SPR; remark: listed apart in the source

B1: COVA1-16 (antibody, V domains shown)
VH: QVQLVQSGAEVKKPGASVKVSCKASGYTFTSYYMHWVRQAPGQGLEWMGIINSSGGSTSYAQKFQGRVTMTRDTSTSTVYMELSSLRSEDTAVYYCARPPRNYYDRSGYYQRAEYFQHWGQGTLVTVSS
VL: DIQLTQSPSSLSASVGDRVTITCQASQDISNYLNWYQQRPGKAPKLLIYDASNLETGVPSRFSGSGSGTDFTFTISSLQPEDIATYYCQQYDNPPLTFGGGTKLEIK
koff [1]: 0.0032 s⁻¹
Kd [2]: 19.5 nM
